Test results from paper PMC12363979 (International Journal of Nanomedicine, 2025).

B1: D25 monoclonal antibody (IgG) (antibody, V domains shown)
VH: QVQLVQSGAEVKKPGSSVMVSCQASGGPLRNYIINWLRQAPGQGPEWMGGIIPVLGTVHYAPKFQGRVTITADESTDTAYIHLISLRSEDTAMYYCATETALVVSTTYLPHYFDNWGQGTLVTVSS
VL: DIQMTQSPSSLSAAVGDRVTITCQASQDIVNYLNWYQQKPGKAPKLLIYVASNLETGVPSRFSGSGSGTDFSLTISSLQPEDVATYYCQQYDNLPLTFGGGTKVEIK
B2: AM14 monoclonal antibody (IgG) (antibody, V domains shown)
VH: EVQLVESGGGVVQPGRSLRLSCAASGFSFSHYAMHWVRQAPGKGLEWVAVISYDGENTYYADSVKGRFSISRDNSKNTVSLQMNSLRPEDTALYYCARDRIVDDYYYYGMDVWGQGATVTVSS
VL: DIQMTQSPSSLSASVGDRVTITCQASQDIKKYLNWYHQKPGKVPELLMHDASNLETGVPSRFSGRGSGTDFTLTISSLQPEDIGTYYCQQYDNLPPLTFGGGTKVEIK

What was measured:
[1] = biological target: T1, DS2-I53-50 nanoparticle (DS2-I53-50A co-assembled with I53-50B) (human RSV A, Long strain (paper); …, stabilised); test: SPR
T1 chain: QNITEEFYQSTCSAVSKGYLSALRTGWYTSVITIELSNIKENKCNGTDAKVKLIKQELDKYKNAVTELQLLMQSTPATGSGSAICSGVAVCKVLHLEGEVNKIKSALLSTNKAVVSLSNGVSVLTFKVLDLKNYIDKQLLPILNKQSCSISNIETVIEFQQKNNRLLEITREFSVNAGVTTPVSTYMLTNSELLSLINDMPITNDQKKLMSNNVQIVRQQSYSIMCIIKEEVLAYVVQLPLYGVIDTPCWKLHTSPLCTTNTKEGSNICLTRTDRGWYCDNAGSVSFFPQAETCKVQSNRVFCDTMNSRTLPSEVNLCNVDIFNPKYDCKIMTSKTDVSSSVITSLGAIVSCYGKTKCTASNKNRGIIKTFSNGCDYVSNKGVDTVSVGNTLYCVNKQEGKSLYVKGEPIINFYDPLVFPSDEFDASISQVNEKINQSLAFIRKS

[2] = biological target: T2, RSV F construct DS2 (stabilized prefusion F trimer) (human RSV A, Long strain (paper); …, stabilised); test: SPR
T2 chain: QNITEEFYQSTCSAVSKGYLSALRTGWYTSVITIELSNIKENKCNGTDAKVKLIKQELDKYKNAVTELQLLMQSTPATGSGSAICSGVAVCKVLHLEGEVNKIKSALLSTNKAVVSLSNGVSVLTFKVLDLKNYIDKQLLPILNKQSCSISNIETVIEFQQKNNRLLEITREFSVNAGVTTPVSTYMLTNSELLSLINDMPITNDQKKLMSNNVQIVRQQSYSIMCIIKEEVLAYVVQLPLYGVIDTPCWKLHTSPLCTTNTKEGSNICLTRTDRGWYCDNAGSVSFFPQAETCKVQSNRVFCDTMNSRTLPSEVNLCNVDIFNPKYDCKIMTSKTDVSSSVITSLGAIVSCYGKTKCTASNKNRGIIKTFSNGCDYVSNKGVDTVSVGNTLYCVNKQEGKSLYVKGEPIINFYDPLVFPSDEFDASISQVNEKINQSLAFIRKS

Binder	kon [1] [M⁻¹ s⁻¹]	kon [2] [M⁻¹ s⁻¹]
B1	1.39e+06	114000
B2	4.33e+06	438000
